Data as given in PMC10978878 (Nature Communications, 2024).

B1: SD1-2 Fab (Fab, V domains shown)
VH: QVQLVQSGPGLVKPSQTLSLTCSVSGDSISSGTYYWSWIRLPAGQGLEWIGRVHSSGSTSYNPSLKSRVTISVDTSKNNFSLKLSSVTAADTAVYYCVRLDNCSAGYCHAFDIWGQGTMVTVSS
VL: QSVLTQPASVSGSPGQSITISCTGTSSDVGSYNLVSWYQQHPGKAPKVMIYEVSKWPSGVSNRFSGSKSGNTASLTISGLQAEDEADYYCCSYAGSGTYVFGTGTKVTVL
B2: SD1-3 Fab (Fab, V domains shown)
VH: QVQLVESGGGLVQPGGSLRLSCTASGVTFSSYAMSWVRQAPGKGLEWVSGISGSGDSTYYADSVKGRFTISRDNSKNTLYLQMNSLRVEDTAVYYCATHYCSGGSCPFDYWGQGTLVTVSS
VL: PSALTQPPSVSVSPGQTASITCSGDKLGNKYAYWYQQKPGQSPVLVIFQDTMRPSGIPERFSASNSGNTATLTISGTQSIDEADYYCQAWDSNTAVFGGGTKLTVL
B3: SD1-1 Fab (Fab, V domains shown)
VH: QVQLVESGPGLVKPSETLSLTCSVSGGSIDNFYWSWIRQPPGKGLEWIGNIYYGGSGNYNPSLKSRVTISVDTSKNQVSLKLRSVTAADTAVYYCARDSVWYTGSYGLIYWGPGTLVTVSS
VL: SVVTQPASVSGSPGQSITISCTGTSSDVGSYNLVSWFQQHPGKAPKLMIYEVTKRPSGISNRFSGSKSGNTASLTISRLQAEDEADYYCCSYAGSSTVVFGGGTKLTVL

Columns and labels:
[1] = target: BA.2.12.1 spike, recombinant trimer that retains the native sequence (SARS-CoV-2, UniProt P0DTC2); test: cryo-EM structure; details: both partners purified
[2] = target: BA.4 spike, recombinant trimeric S-twin-Strep, prefusion stabilized (SARS-CoV-2, UniProt P0DTC2); test: cryo-EM structure; details: both partners purified

Row | Binder | stoichiometry N [1] [Fab per spike trimer] | stoichiometry N [2] [Fab per spike trimer]
1 | B1 | 3 | –
2 | B2 | 3 | –
3 | B3 | – | 3
